Data taken from patent US20260049138A1 (Chugai, published 2026).
Changes are numbered by the printed parent chain. Numbers in names are those of the source.

B1: GLS3000 S56Q one-arm antibody (antibody, human IgG1, kappa, L234A L235A, N297A, name in Kabat numbering)
heavy: QVQLVESGGGVVQPGRSLRLSCAASGFTFSNAWMHWVRQAPGKGLEWVAQIKAKSNNYATYYAESVKGRFTISRDDSKNSLYLQMNSLKTEDTAVYYCRYVHYGAYYGVDAWGQGTTVTVSSASTKGPSVFPLAPSSKSTSGGTAALGCLVKDYFPEPVTVSWNSGALTSGVHTFPAVLQSSGLYSLSSVVTVPSSSLGTQTYICNVNHKPSNTKVDKKVEPKSCDKTHTCPPCPAPEAAGGPSVFLFPPKPKDTLMISRTPEVTCVVVDVSHEDPEVKFNWYVDGVEVHNAKTKPREEQYASTYRVVSVLTVLHQDWLNGKEYKCKVSNKALPAPIEKTISKAKGQPREPQVYTLPPSRCELTKNQVSLSCAVKGFYPSDIAVEWESNGQPENNYKTTPPVLDSDGSFFLVSKLTVDKSRWQQGNVFSCSVMHEALHNHYTQKSLSLSPDYKDDDDK
chain: EPKSSDKTHTCPPCPAPELLGGPSVFLFPPKPKDTLMISRTPEVTCVVVDVSHEDPEVKFNWYVDGVEVHNAKTKPREEQYNSTYRVVSVLTVLHQDWLNGKEYKCKVSNKALPAPIEKTISKAKGQPREPQVCTLPPSRDELTKNQVSLWCLVKGFYPSDIAVEWESNGQPENNYKTTPPVLDSDGSFFLYSKLTVDKSRWQQGNVFSCSVMHEALHNRYTQKSLSLSP
light: DIVMTQSPLSLPVTPGEPASISCRSSQSLVHSNRNTYLHWYQQKPGQAPRLLIYKVSNRFQGVPDRFSGSGSGTDFTLKISRVEAEDVGVYYCGQGTQVPYTFGQGTKLEIKRTVAAPSVFIFPPSDEQLKSGTASVVCLLNNFYPREAKVQWKVDNALQSGNSQESVTEQDSKDSTYSLSSTLTLSKADYEKHKVYACEVTHQGLSSPVTKSFNRGEC
B2: GLS3000 S56W one-arm antibody (antibody, human IgG1, kappa, L234A L235A, N297A, name in Kabat numbering)
heavy: B1 heavy
chain: B1 chain
light: B1 light with Q61W
B3: GLS3000 T31E one-arm antibody (antibody, human IgG1, kappa, L234A L235A, N297A, name in Kabat numbering)
heavy: B1 heavy
chain: B1 chain
light: B1 light with T36E, Q61S
B4: GLS3000 T31I one-arm antibody (antibody, human IgG1, kappa, L234A L235A, N297A, name in Kabat numbering)
heavy: B1 heavy
chain: B1 chain
light: B1 light with T36I, Q61S
B5: GLS3000 T31K one-arm antibody (antibody, human IgG1, kappa, L234A L235A, N297A, name in Kabat numbering)
heavy: B1 heavy
chain: B1 chain
light: B1 light with T36K, Q61S
B6: GLS3000 S56R one-arm antibody (antibody, human IgG1, kappa, L234A L235A, N297A, name in Kabat numbering)
heavy: B1 heavy
chain: B1 chain
light: B1 light with Q61R
B7: GLS3000 S56T one-arm antibody (antibody, human IgG1, kappa, L234A L235A, N297A, name in Kabat numbering)
heavy: B1 heavy
chain: B1 chain
light: B1 light with Q61T
B8: GLS3000 S56Y one-arm antibody (antibody, human IgG1, kappa, L234A L235A, N297A, name in Kabat numbering)
heavy: B1 heavy
chain: B1 chain
light: B1 light with Q61Y
B9: GLS3000 T31D one-arm antibody (antibody, human IgG1, kappa, L234A L235A, N297A, name in Kabat numbering)
heavy: B1 heavy
chain: B1 chain
light: B1 light with T36D, Q61S
B10: GLS3000 S56V one-arm antibody (antibody, human IgG1, kappa, L234A L235A, N297A, name in Kabat numbering)
heavy: B1 heavy
chain: B1 chain
light: B1 light with Q61V

Biological target: T1, CD3ε homodimer protein (human, UniProt P07766 23-126, limits assumed)
T1 construct: also called CD3 (CD3ε)
Assay: SPR Biacore T200, CD3ε homodimer on chip;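 note: Light-chain single-residue variant antibodies injected over amine-coupled CD3ε homodimer on a CM4 chip at 25 °C, bound amount divided by that of the GLS3000-containing antibody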

T1 sequence (P07766 23-126 limits assumed): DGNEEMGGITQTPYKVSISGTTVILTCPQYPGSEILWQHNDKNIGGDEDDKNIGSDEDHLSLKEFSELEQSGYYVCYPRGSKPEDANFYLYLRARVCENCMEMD

Row | Binder | ratio of amount bound vs unaltered GLS3000
1 | B1 | 1.04
2 | B2 | 1.38
3 | B3 | 0.49
4 | B4 | 0.97
5 | B5 | 1.04
6 | B6 | 1.36
7 | B7 | 0.97
8 | B8 | 1.46
9 | B9 | 0.23
10 | B10 | 0.95
